Target: T1, human PDGFRb (human, UniProt P09619 33-531)
T1 chain: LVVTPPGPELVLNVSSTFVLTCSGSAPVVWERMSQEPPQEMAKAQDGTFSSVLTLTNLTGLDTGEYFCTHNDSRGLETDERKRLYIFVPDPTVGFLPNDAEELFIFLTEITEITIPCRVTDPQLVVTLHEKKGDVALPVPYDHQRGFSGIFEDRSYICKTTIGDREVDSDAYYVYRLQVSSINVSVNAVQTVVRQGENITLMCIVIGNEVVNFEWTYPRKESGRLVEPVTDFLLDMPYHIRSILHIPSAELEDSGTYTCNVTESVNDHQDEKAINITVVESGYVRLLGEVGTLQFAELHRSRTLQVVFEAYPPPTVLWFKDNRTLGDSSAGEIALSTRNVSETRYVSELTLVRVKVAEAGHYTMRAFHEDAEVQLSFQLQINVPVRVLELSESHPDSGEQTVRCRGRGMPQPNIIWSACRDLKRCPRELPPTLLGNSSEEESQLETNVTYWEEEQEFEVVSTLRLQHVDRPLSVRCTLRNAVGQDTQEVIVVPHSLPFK
Assay: solution binding affinity (35S Met labeled)

Kd: 0.03 nM
B1: scFv XB2202-A4 (scFv, V domains shown)
VH: QVQLVQSGAEVKKPGSSVRVSCKASGGTFSRHAISWVRQAPGQGLEWIGGILPILKTPNYAQRFQGRVTINADESTSTVYMEMSSLRSEDTAVYYCATHGGDRSYWGQGTLVTVSS
VL: DVVMTQSPSSLSASVGDRVTITCQASQDISNWLNWYQQKPGKAPKLLIYEASNLETGVPSRFSGSGSGTDFTFTISSLQPEDIATYYCQQYNNVLRTFGQGTKVEIK

Source: patent US20140113831A1 (published 2014)
